According to publication PMC10786891, “Massively parallel profiling of RNA-targeting CRISPR-Cas13d”:

T1: EsCas13d, nuclease-dead (Eubacterium siraeum, UniProt B0MS50, R295A;H300A;R849A;H854A)
T1 sequence: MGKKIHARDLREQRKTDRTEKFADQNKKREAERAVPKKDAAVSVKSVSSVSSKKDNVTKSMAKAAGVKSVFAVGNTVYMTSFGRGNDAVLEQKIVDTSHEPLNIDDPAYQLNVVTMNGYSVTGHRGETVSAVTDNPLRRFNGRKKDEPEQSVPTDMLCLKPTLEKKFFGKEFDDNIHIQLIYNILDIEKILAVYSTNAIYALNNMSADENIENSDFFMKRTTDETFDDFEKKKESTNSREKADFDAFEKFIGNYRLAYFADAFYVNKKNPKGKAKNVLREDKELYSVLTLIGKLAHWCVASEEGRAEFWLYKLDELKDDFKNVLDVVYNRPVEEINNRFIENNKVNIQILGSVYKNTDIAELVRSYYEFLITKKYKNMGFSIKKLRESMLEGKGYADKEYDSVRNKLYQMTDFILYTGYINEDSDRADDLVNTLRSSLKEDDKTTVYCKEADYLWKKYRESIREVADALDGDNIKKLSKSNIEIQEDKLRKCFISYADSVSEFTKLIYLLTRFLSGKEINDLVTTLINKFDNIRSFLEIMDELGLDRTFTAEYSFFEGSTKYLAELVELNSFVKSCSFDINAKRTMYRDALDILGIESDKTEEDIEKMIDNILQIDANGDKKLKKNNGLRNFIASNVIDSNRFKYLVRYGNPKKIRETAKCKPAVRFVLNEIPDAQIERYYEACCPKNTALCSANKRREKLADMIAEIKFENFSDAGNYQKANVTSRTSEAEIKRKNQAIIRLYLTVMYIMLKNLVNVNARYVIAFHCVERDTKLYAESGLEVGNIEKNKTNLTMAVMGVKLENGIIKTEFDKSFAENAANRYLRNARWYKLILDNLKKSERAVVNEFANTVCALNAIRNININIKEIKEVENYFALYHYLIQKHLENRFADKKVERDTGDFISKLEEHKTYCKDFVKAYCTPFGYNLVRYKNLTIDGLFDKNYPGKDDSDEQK


Each binder was assayed against T1, EsCas13d, nuclease-dead (assay: crRNA (strand 1, pre-loaded); Mg2+; 40 mM Tris-HCl pH 7.5, 150 mM NaCl, 6 mM MgCl2, 1 mM DTT, 0.1% Tween-20, 0.2 mg/ml BSA; 25 C; 10 min per concentration, then washed). Conditions: tags: His6-TwinStrep-SUMO cleaved; N-terminal SNAP kept (SNAP-Surface 488); label: 3' end held by stalled T7 RNA polymerase.

Binder | Kd [nM]
target 1 MT 5'PFS AAG 3'PFS AAG (mixed) RNA 1: CACCCGUGCAAAAAUGCAGGGGUCUAAAACUGAGCGGAUAACCUCUCUAUGG RNA 2: GGGAAUGGAUCCACAUCUACGAAUUCAAGCCAUAGAGAGGUUAUCCGCUCAAAGAGAUCGGAAGAGCACACGU | 20.5 ± 4.5
target 1 MT 5'PFS CCG 3'PFS CAC (mixed) RNA 1: CACCCGUGCAAAAAUGCAGGGGUCUAAAACUGAGCGGAUAACCUCUCUAUGG RNA 2: GGGAAUGGAUCCACAUCUACGAAUUCCCGCCAUAGAGAGGUUAUCCGCUCACACAGAUCGGAAGAGCACACGU | 6.45 ± 2.75
target 1 MT 5'PFS CCU 3'PFS CGC (mixed) RNA 1: CACCCGUGCAAAAAUGCAGGGGUCUAAAACUGAGCGGAUAACCUCUCUAUGG RNA 2: GGGAAUGGAUCCACAUCUACGAAUUCCCUCCAUAGAGAGGUUAUCCGCUCACGCAGAUCGGAAGAGCACACGU | ~15.5
target 1 MT 5'PFS AAA 3'PFS ACU (mixed) RNA 1: CACCCGUGCAAAAAUGCAGGGGUCUAAAACUGAGCGGAUAACCUCUCUAUGG RNA 2: GGGAAUGGAUCCACAUCUACGAAUUCAAACCAUAGAGAGGUUAUCCGCUCAACUAGAUCGGAAGAGCACACGU | 12.1 ± 2.6
target 1 MT 5'PFS GCA 3'PFS UCU (mixed) RNA 1: CACCCGUGCAAAAAUGCAGGGGUCUAAAACUGAGCGGAUAACCUCUCUAUGG RNA 2: GGGAAUGGAUCCACAUCUACGAAUUCGCACCAUAGAGAGGUUAUCCGCUCAUCUAGAUCGGAAGAGCACACGU | 10.6 ± 2.55
target 1 MT 5'PFS GAG 3'PFS CGG (mixed) RNA 1: CACCCGUGCAAAAAUGCAGGGGUCUAAAACUGAGCGGAUAACCUCUCUAUGG RNA 2: GGGAAUGGAUCCACAUCUACGAAUUCGAGCCAUAGAGAGGUUAUCCGCUCACGGAGAUCGGAAGAGCACACGU | ~100
target 1 MT 5'PFS GAG 3'PFS CGA (mixed) RNA 1: CACCCGUGCAAAAAUGCAGGGGUCUAAAACUGAGCGGAUAACCUCUCUAUGG RNA 2: GGGAAUGGAUCCACAUCUACGAAUUCGAGCCAUAGAGAGGUUAUCCGCUCACGAAGAUCGGAAGAGCACACGU | ~49
target 1 insU 3' of 13,insU 3' of 13 (mixed) RNA 1: CACCCGUGCAAAAAUGCAGGGGUCUAAAACUGAGCGGAUAACCUCUCUAUGG RNA 2: GGGAAUGGAUCCACAUCUACGAAUUCGUACCAUAGAGAGUUGUUAUCCGCUCACCGAGAUCGGAAGAGCACACGU | 6.5 ± 0.6
target 1 MT 5'PFS GUU 3'PFS UGC (mixed) RNA 1: CACCCGUGCAAAAAUGCAGGGGUCUAAAACUGAGCGGAUAACCUCUCUAUGG RNA 2: GGGAAUGGAUCCACAUCUACGAAUUCGUUCCAUAGAGAGGUUAUCCGCUCAUGCAGAUCGGAAGAGCACACGU | 15.5 ± 2.7
target 1 MT 5'PFS GUU 3'PFS UGA (mixed) RNA 1: CACCCGUGCAAAAAUGCAGGGGUCUAAAACUGAGCGGAUAACCUCUCUAUGG RNA 2: GGGAAUGGAUCCACAUCUACGAAUUCGUUCCAUAGAGAGGUUAUCCGCUCAUGAAGAUCGGAAGAGCACACGU | 16.8 ± 2.5
target 1 MT 5'PFS GUU 3'PFS UGU (mixed) RNA 1: CACCCGUGCAAAAAUGCAGGGGUCUAAAACUGAGCGGAUAACCUCUCUAUGG RNA 2: GGGAAUGGAUCCACAUCUACGAAUUCGUUCCAUAGAGAGGUUAUCCGCUCAUGUAGAUCGGAAGAGCACACGU | 34.5 ± 6.5
target 1 MT 5'PFS GGA 3'PFS GAG (mixed) RNA 1: CACCCGUGCAAAAAUGCAGGGGUCUAAAACUGAGCGGAUAACCUCUCUAUGG RNA 2: GGGAAUGGAUCCACAUCUACGAAUUCGGACCAUAGAGAGGUUAUCCGCUCAGAGAGAUCGGAAGAGCACACGU | 19 ± 6
target 1 MT 5'PFS AAC 3'PFS CCG (mixed) RNA 1: CACCCGUGCAAAAAUGCAGGGGUCUAAAACUGAGCGGAUAACCUCUCUAUGG RNA 2: GGGAAUGGAUCCACAUCUACGAAUUCAACCCAUAGAGAGGUUAUCCGCUCACCGAGAUCGGAAGAGCACACGU | 19.5 ± 4.45
target 1 MT 5'PFS CCG 3'PFS ACA (mixed) RNA 1: CACCCGUGCAAAAAUGCAGGGGUCUAAAACUGAGCGGAUAACCUCUCUAUGG RNA 2: GGGAAUGGAUCCACAUCUACGAAUUCCCGCCAUAGAGAGGUUAUCCGCUCAACAAGAUCGGAAGAGCACACGU | 38.5 ± 13
target 1 MT 5'PFS UCG 3'PFS AUC (mixed) RNA 1: CACCCGUGCAAAAAUGCAGGGGUCUAAAACUGAGCGGAUAACCUCUCUAUGG RNA 2: GGGAAUGGAUCCACAUCUACGAAUUCUCGCCAUAGAGAGGUUAUCCGCUCAAUCAGAUCGGAAGAGCACACGU | 42 ± 13
target 1 MT 5'PFS AGG 3'PFS CAG (mixed) RNA 1: CACCCGUGCAAAAAUGCAGGGGUCUAAAACUGAGCGGAUAACCUCUCUAUGG RNA 2: GGGAAUGGAUCCACAUCUACGAAUUCAGGCCAUAGAGAGGUUAUCCGCUCACAGAGAUCGGAAGAGCACACGU | ~41
target 1 MT 5'PFS ACC 3'PFS UAC (mixed) RNA 1: CACCCGUGCAAAAAUGCAGGGGUCUAAAACUGAGCGGAUAACCUCUCUAUGG RNA 2: GGGAAUGGAUCCACAUCUACGAAUUCACCCCAUAGAGAGGUUAUCCGCUCAUACAGAUCGGAAGAGCACACGU | 31 ± 14.5
target 1 MT 5'PFS UCG 3'PFS AUU (mixed) RNA 1: CACCCGUGCAAAAAUGCAGGGGUCUAAAACUGAGCGGAUAACCUCUCUAUGG RNA 2: GGGAAUGGAUCCACAUCUACGAAUUCUCGCCAUAGAGAGGUUAUCCGCUCAAUUAGAUCGGAAGAGCACACGU | 32.5 ± 10.5
target 1 del4,del8 (mixed) RNA 1: CACCCGUGCAAAAAUGCAGGGGUCUAAAACUGAGCGGAUAACCUCUCUAUGG RNA 2: GGGAAUGGAUCCACAUCUACGAAUUCGUACCAUAGAGAGGUUACCGUCACCGAGAUCGGAAGAGCACACGU | 12.1 ± 1
target 1 C6U,U19C (mixed) RNA 1: CACCCGUGCAAAAAUGCAGGGGUCUAAAACUGAGCGGAUAACCUCUCUAUGG RNA 2: GGGAAUGGAUCCACAUCUACGAAUUCGUACCACAGAGAGGUUAUCUGCUCACCGAGAUCGGAAGAGCACACGU | 29.7 ± 2
target 1 MT 5'PFS ACC 3'PFS UAG (mixed) RNA 1: CACCCGUGCAAAAAUGCAGGGGUCUAAAACUGAGCGGAUAACCUCUCUAUGG RNA 2: GGGAAUGGAUCCACAUCUACGAAUUCACCCCAUAGAGAGGUUAUCCGCUCAUAGAGAUCGGAAGAGCACACGU | ~14.5
target 1 MT 5'PFS AAA 3'PFS CAC (mixed) RNA 1: CACCCGUGCAAAAAUGCAGGGGUCUAAAACUGAGCGGAUAACCUCUCUAUGG RNA 2: GGGAAUGGAUCCACAUCUACGAAUUCAAACCAUAGAGAGGUUAUCCGCUCACACAGAUCGGAAGAGCACACGU | 29.5 ± 11.5
target 1 MT 5'PFS AAC 3'PFS AAC (mixed) RNA 1: CACCCGUGCAAAAAUGCAGGGGUCUAAAACUGAGCGGAUAACCUCUCUAUGG RNA 2: GGGAAUGGAUCCACAUCUACGAAUUCAACCCAUAGAGAGGUUAUCCGCUCAAACAGAUCGGAAGAGCACACGU | 84.5 ± 41.5
target 1 MT 5'PFS AAC 3'PFS AAG (mixed) RNA 1: CACCCGUGCAAAAAUGCAGGGGUCUAAAACUGAGCGGAUAACCUCUCUAUGG RNA 2: GGGAAUGGAUCCACAUCUACGAAUUCAACCCAUAGAGAGGUUAUCCGCUCAAAGAGAUCGGAAGAGCACACGU | 34.5 ± 15
target 1 MT 5'PFS GCA 3'PFS AGC (mixed) RNA 1: CACCCGUGCAAAAAUGCAGGGGUCUAAAACUGAGCGGAUAACCUCUCUAUGG RNA 2: GGGAAUGGAUCCACAUCUACGAAUUCGCACCAUAGAGAGGUUAUCCGCUCAAGCAGAUCGGAAGAGCACACGU | 28.5 ± 14
target 1 MT 5'PFS GGC 3'PFS CCA (mixed) RNA 1: CACCCGUGCAAAAAUGCAGGGGUCUAAAACUGAGCGGAUAACCUCUCUAUGG RNA 2: GGGAAUGGAUCCACAUCUACGAAUUCGGCCCAUAGAGAGGUUAUCCGCUCACCAAGAUCGGAAGAGCACACGU | 31.5 ± 10.5
target 1 MT 5'PFS GGC 3'PFS CCG (mixed) RNA 1: CACCCGUGCAAAAAUGCAGGGGUCUAAAACUGAGCGGAUAACCUCUCUAUGG RNA 2: GGGAAUGGAUCCACAUCUACGAAUUCGGCCCAUAGAGAGGUUAUCCGCUCACCGAGAUCGGAAGAGCACACGU | 8.35 ± 1.4
target 1 MT 5'PFS GUU 3'PFS CGA (mixed) RNA 1: CACCCGUGCAAAAAUGCAGGGGUCUAAAACUGAGCGGAUAACCUCUCUAUGG RNA 2: GGGAAUGGAUCCACAUCUACGAAUUCGUUCCAUAGAGAGGUUAUCCGCUCACGAAGAUCGGAAGAGCACACGU | 19.7 ± 4.2
